Data reported in the supplement of paper PMC9112550, “Optimization of the antimicrobial peptide Bac7 by deep mutational scanning” (BMC Biology, 2022).

These sequences were tested on Escherichia coli TOP10 (assay: shrunken log2 fold change of peptide-encoding DNA abundance (4.5 h post-induction vs induction); higher = less antimicrobial activity (less host growth inhibition)). Settings: time post-induction: 4.5 h; library: site-saturation at positions 5, 18, 19, 20.
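Further: peptides expressed intracellularly from a pBAD plasmid library in pooled LB shake-flask culture, induced with 0.3% L-arabinose, DNA abundance read by NGS, three biological replicates, DESeq2 with apeglm shrinkage.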

Sequence	shrunken log2 fold change
RRIRWRPPRLPRPRPRPPYYPRP	-0.183
RRIRWRPPRLPRPRPRPQAIPRP	0.204
RRIRWRPPRLPRPRPRPQAQPRP	0.00496
RRIRWRPPRLPRPRPRPQARPRP	0.19
RRIRWRPPRLPRPRPRPQCIPRP	-0.0652
RRIRWRPPRLPRPRPRPQFTPRP	-0.313
RRIRWRPPRLPRPRPRPQGEPRP	0.29
RRIRWRPPRLPRPRPRPQGGPRP	-0.0626
RRIRWRPPRLPRPRPRPQGQPRP	0.203
RRIRWRPPRLPRPRPRPQHSPRP	-0.186
RRIRWRPPRLPRPRPRPQICPRP	-0.0447
RRIRWRPPRLPRPRPRPQIEPRP	0.0601
RRIRWRPPRLPRPRPRPQIFPRP	-0.053
RRIRWRPPRLPRPRPRPQKAPRP	0.123
RRIRWRPPRLPRPRPRPQKKPRP	0.0854
RRIRWRPPRLPRPRPRPQKWPRP	0.00891
RRIRWRPPRLPRPRPRPQLMPRP	0.13
RRIRWRPPRLPRPRPRPQPLPRP	-0.0153
RRIRWRPPRLPRPRPRPQPPPRP	0.603
RRIRWRPPRLPRPRPRPQQRPRP	-0.102
RRIRWRPPRLPRPRPRPQRTPRP	-0.0113
RRIRWRPPRLPRPRPRPQRWPRP	0.308
RRIRWRPPRLPRPRPRPQSDPRP	-0.239
RRIRWRPPRLPRPRPRPQSYPRP	-0.0988
RRIRWRPPRLPRPRPRPQTRPRP	0.122

Sequence	shrunken log2 fold change
RRIRWRPPRLPRPRPRPQVEPRP	-0.00667
RRIRWRPPRLPRPRPRPQVYPRP	-0.015
RRIRWRPPRLPRPRPRPQWFPRP	-0.27
RRIRWRPPRLPRPRPRPQWNPRP	-0.156
RRIRWRPPRLPRPRPRPQWVPRP	0.0902
RRIRWRPPRLPRPRPRPQYMPRP	-0.164
RRIRWRPPRLPRPRPRPQYSPRP	-0.653
RRIRWRPPRLPRPRPRPRAMPRP	0.363
RRIRWRPPRLPRPRPRPRCSPRP	0.362
RRIRWRPPRLPRPRPRPRDAPRP	0.632
RRIRWRPPRLPRPRPRPRHKPRP	-0.0379
RRIRWRPPRLPRPRPRPRHSPRP	0.286
RRIRWRPPRLPRPRPRPRHYPRP	0.00846
RRIRWRPPRLPRPRPRPRIDPRP	-0.0323
RRIRWRPPRLPRPRPRPRIEPRP	0.186
RRIRWRPPRLPRPRPRPRKPPRP	0.188
RRIRWRPPRLPRPRPRPRLKPRP	0.689
RRIRWRPPRLPRPRPRPRLQPRP	0.642
RRIRWRPPRLPRPRPRPRLYPRP	0.245
RRIRWRPPRLPRPRPRPRPEPRP	0.502
RRIRWRPPRLPRPRPRPRQGPRP	0.582
RRIRWRPPRLPRPRPRPRQTPRP	0.0702
RRIRWRPPRLPRPRPRPRRFPRP	0.269
RRIRWRPPRLPRPRPRPRSLPRP	-0.115
RRIRWRPPRLPRPRPRPRTSPRP	-0.0212

Sequence	shrunken log2 fold change
RRIRWRPPRLPRPRPRPRWDPRP	0.0641
RRIRWRPPRLPRPRPRPRWSPRP	0.372
RRIRWRPPRLPRPRPRPRYCPRP	-0.139
RRIRWRPPRLPRPRPRPRYQPRP	-0.188
RRIRWRPPRLPRPRPRPRYSPRP	-0.136
RRIRWRPPRLPRPRPRPRYVPRP	-0.147
RRIRWRPPRLPRPRPRPSCMPRP	0.11
RRIRWRPPRLPRPRPRPSCWPRP	0.0114
RRIRWRPPRLPRPRPRPSDCPRP	-0.183
RRIRWRPPRLPRPRPRPSDEPRP	-0.117
RRIRWRPPRLPRPRPRPSDFPRP	0.0215
RRIRWRPPRLPRPRPRPSEPPRP	-0.266
RRIRWRPPRLPRPRPRPSETPRP	0.0208
RRIRWRPPRLPRPRPRPSGAPRP	0.527
RRIRWRPPRLPRPRPRPSHKPRP	-0.193
RRIRWRPPRLPRPRPRPSHLPRP	-0.517
RRIRWRPPRLPRPRPRPSHNPRP	-0.596
RRIRWRPPRLPRPRPRPSHYPRP	-0.557
RRIRWRPPRLPRPRPRPSKHPRP	-0.499
RRIRWRPPRLPRPRPRPSKLPRP	-0.315
RRIRWRPPRLPRPRPRPSKNPRP	-0.158
RRIRWRPPRLPRPRPRPSKWPRP	-0.327
RRIRWRPPRLPRPRPRPSLPPRP	-0.133
RRIRWRPPRLPRPRPRPSLTPRP	0.282
RRIRWRPPRLPRPRPRPSNQPRP	-0.561

Sequence	shrunken log2 fold change
RRIRWRPPRLPRPRPRPSNWPRP	0.135
RRIRWRPPRLPRPRPRPSQCPRP	0.0963
RRIRWRPPRLPRPRPRPSQIPRP	-0.165
RRIRWRPPRLPRPRPRPSRAPRP	0.397
RRIRWRPPRLPRPRPRPSRVPRP	0.253
RRIRWRPPRLPRPRPRPSSPPRP	-0.0889
RRIRWRPPRLPRPRPRPSTMPRP	-0.284
RRIRWRPPRLPRPRPRPSTSPRP	-0.302
RRIRWRPPRLPRPRPRPSVVPRP	-0.00267
RRIRWRPPRLPRPRPRPSYRPRP	-0.895
RRIRWRPPRLPRPRPRPSYYPRP	-0.292
RRIRWRPPRLPRPRPRPTCHPRP	0.228
RRIRWRPPRLPRPRPRPTCQPRP	0.729
RRIRWRPPRLPRPRPRPTCRPRP	0.0452
RRIRWRPPRLPRPRPRPTDSPRP	-0.195
RRIRWRPPRLPRPRPRPTHNPRP	0.0181
RRIRWRPPRLPRPRPRPTHPPRP	0.709
RRIRWRPPRLPRPRPRPTLGPRP	0.079
RRIRWRPPRLPRPRPRPTMLPRP	0.101
RRIRWRPPRLPRPRPRPTNAPRP	0.0747
RRIRWRPPRLPRPRPRPTNDPRP	0.0116
RRIRWRPPRLPRPRPRPTPYPRP	0.284
RRIRWRPPRLPRPRPRPTQGPRP	0.533
RRIRWRPPRLPRPRPRPTQQPRP	-0.0891
RRIRWRPPRLPRPRPRPTRGPRP	0.329

Sequence	shrunken log2 fold change
RRIRWRPPRLPRPRPRPTTYPRP	-0.187
RRIRWRPPRLPRPRPRPTVDPRP	0.296
RRIRWRPPRLPRPRPRPTVVPRP	0.134
RRIRWRPPRLPRPRPRPTVYPRP	0.116
RRIRWRPPRLPRPRPRPTWSPRP	0.541
RRIRWRPPRLPRPRPRPTWVPRP	0.688
RRIRWRPPRLPRPRPRPTYAPRP	-0.0208
RRIRWRPPRLPRPRPRPTYQPRP	-0.325
RRIRWRPPRLPRPRPRPVATPRP	0.991
RRIRWRPPRLPRPRPRPVCCPRP	0.469
RRIRWRPPRLPRPRPRPVDAPRP	0.434
RRIRWRPPRLPRPRPRPVDTPRP	0.00157
RRIRWRPPRLPRPRPRPVDWPRP	2.21
RRIRWRPPRLPRPRPRPVEPPRP	0.546
RRIRWRPPRLPRPRPRPVFTPRP	0.0746
RRIRWRPPRLPRPRPRPVFWPRP	0.386
RRIRWRPPRLPRPRPRPVHNPRP	-0.152
RRIRWRPPRLPRPRPRPVHWPRP	0.138
RRIRWRPPRLPRPRPRPVIDPRP	0.373
RRIRWRPPRLPRPRPRPVIHPRP	0.162
RRIRWRPPRLPRPRPRPVLHPRP	-0.0358
RRIRWRPPRLPRPRPRPVMCPRP	-0.0922
RRIRWRPPRLPRPRPRPVMEPRP	0.0979
RRIRWRPPRLPRPRPRPVMFPRP	-0.0114
RRIRWRPPRLPRPRPRPVNCPRP	0.0456

Sequence	shrunken log2 fold change
RRIRWRPPRLPRPRPRPVPAPRP	0.532
RRIRWRPPRLPRPRPRPVPSPRP	0.058
RRIRWRPPRLPRPRPRPVQSPRP	0.0186
RRIRWRPPRLPRPRPRPVSCPRP	0.0517
RRIRWRPPRLPRPRPRPVSGPRP	-0.0172
RRIRWRPPRLPRPRPRPVSPPRP	0.175
RRIRWRPPRLPRPRPRPVTDPRP	0.105
RRIRWRPPRLPRPRPRPVYLPRP	-0.229
RRIRWRPPRLPRPRPRPWCIPRP	-0.225
RRIRWRPPRLPRPRPRPWDDPRP	-0.236
RRIRWRPPRLPRPRPRPWFKPRP	-0.123
RRIRWRPPRLPRPRPRPWGYPRP	0.0906
RRIRWRPPRLPRPRPRPWHGPRP	-0.368
RRIRWRPPRLPRPRPRPWHRPRP	-0.0473
RRIRWRPPRLPRPRPRPWKEPRP	0.162
RRIRWRPPRLPRPRPRPWKFPRP	0.0588
RRIRWRPPRLPRPRPRPWKHPRP	0.0264
RRIRWRPPRLPRPRPRPWKTPRP	0.149
RRIRWRPPRLPRPRPRPWLLPRP	-0.0799
RRIRWRPPRLPRPRPRPWLNPRP	-0.227
RRIRWRPPRLPRPRPRPWNLPRP	-0.0421
RRIRWRPPRLPRPRPRPWPDPRP	0.0849
RRIRWRPPRLPRPRPRPWPHPRP	0.204
RRIRWRPPRLPRPRPRPWSIPRP	-0.46
RRIRWRPPRLPRPRPRPWTCPRP	0.0612
